Source: PMC4214742, “Crystal Structure of Human Protein N-Terminal Glutamine Amidohydrolase, an Initial Component of the N-End Rule Pathway” (PLoS ONE, 2014)

Target: the molecule itself
Test: crystal structure; SAD phasing, 1.5 Å; hanging-drop vapor diffusion at 291 K, 10 mg/ml Se-Met protein, well solution 1% ethylene glycol, 1.8 M ammonium sulfate, 100 mM MES pH 6.0; space group P212121; contact between symmetry-related molecules in the crystal

B1: human protein N-terminal glutamine amidohydrolase isoform 1 (hNtaq1) (enzyme)
chain: not shown
modifications: Se-Met labeled (selenomethionine in place of methionine)
notes: human N-terminal glutamine amidohydrolase isoform 1, encoded by the C8orf32 gene; 205 amino acids (Ser1 to Cys205), initial Met replaced by Ser after TEV cleavage; 202 residues modeled, Lys203, Asn204 and Cys205 disordered; Cloned by Gateway into pVP16 with N-terminal (His)6-MBP and a TEV site; also called human Ntaq1; not shown: His6, N-terminal, cleaved; MBP, N-terminal, cleaved
binding result: binds
